Reference: FireProtDB (doi:10.1016/s0167-4838(99)00071-0)
Where “and” joins values, the source holds several entries; their conditions need not be identical. Equal values may be shown once.

Settings: Saccharomyces cerevisiae (strain ATCC 204508 / S288c), Thermal, DSC, reversible: yes
[1] = pH 4.7, 51.4 °C, sodium acetate 50 mM, structure 1YCC
[2] = pH 4.7, sodium acetate 50 mM, structure 1YCC
[3] = pH 6, 57.1 °C, sodium phosphate 100 mM, structure 1YCC
[4] = pH 6, sodium phosphate 100 mM, structure 1YCC
[5] = pH 6, sodium phosphate 10 mM, structure 1YCC

Chain of Cytochrome c isoform 1 T75E|T102A|C108T, P00044 T75E T102A C108T (P00044 whole entry T75E/T102A/C108T, canonical isoform): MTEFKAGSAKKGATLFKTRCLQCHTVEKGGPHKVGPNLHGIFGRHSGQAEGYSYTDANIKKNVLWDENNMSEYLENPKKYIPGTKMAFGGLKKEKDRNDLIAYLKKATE
Chain of Cytochrome c isoform 1 T102A|C108T, P00044 T102A C108T (P00044 whole entry T102A/C108T, canonical isoform): as the sequence (P00044 whole entry T75E/T102A/C108T, canonical isoform) above, with E75T counted along it
Chain of Cytochrome c isoform 1 wild type, P00044 (P00044 whole entry, canonical isoform): as the sequence (P00044 whole entry T75E/T102A/C108T, canonical isoform) above, with E75T, A102T, T108C counted along it
Chain of Cytochrome c isoform 1 T75E|C108T, P00044 T75E C108T (P00044 whole entry T75E/C108T, canonical isoform): as the sequence (P00044 whole entry T75E/T102A/C108T, canonical isoform) above, with A102T counted along it
Chain of Cytochrome c isoform 1 C108T, P00044 (P00044 whole entry C108T, canonical isoform): as the sequence (P00044 whole entry T75E/T102A/C108T, canonical isoform) above, with E75T, A102T counted along it

Substance	unfolding enthalpy (calorimetric) [1]	heat capacity change of unfolding [2]	unfolding enthalpy (calorimetric) [2]	unfolding enthalpy (van 't Hoff) [2]	unfolding enthalpy (calorimetric) [3]	heat capacity change of unfolding [4]	unfolding enthalpy (calorimetric) [4]	unfolding enthalpy (van 't Hoff) [4]	heat capacity change of unfolding [5]	unfolding enthalpy (calorimetric) [5]	unfolding enthalpy (van 't Hoff) [5]	also measured
Cytochrome c isoform 1 T102A|C108T, P00044 T102A C108T	326 kJ/mol and 280 kJ/mol	1.8 kcal/mol/K	351 kJ/mol and 506 kJ/mol	492 kJ/mol and 557 kJ/mol	351 kJ/mol	1.8 kcal/mol/K	381 kJ/mol and 602 kJ/mol	456 kJ/mol and 602 kJ/mol	–	–	–	–
Cytochrome c isoform 1 wild type, P00044	–	–	–	–	–	–	–	–	–	–	–	unfolding enthalpy (calorimetric) (pH 4.7, 51.4 °C, sodium acetate 50 mM): 176 kJ/mol and 205 kJ/mol; heat capacity change of unfolding (pH 4.7, sodium acetate 50 mM): 1.4 kcal/mol/K; unfolding enthalpy (calorimetric) (pH 4.7, sodium acetate 50 mM): 167 kJ/mol; unfolding enthalpy (van 't Hoff) (pH 4.7, sodium acetate 50 mM): 218 kJ/mol; unfolding enthalpy (calorimetric) (pH 6, 57.1 °C, sodium phosphate 100 mM): 326 kJ/mol and 259 kJ/mol; Tm (pH 6, sodium phosphate 10 mM): 81.4 °C; heat capacity change of unfolding (pH 6, sodium phosphate 100 mM): 1.4 kcal/mol/K; unfolding enthalpy (calorimetric) (pH 6, sodium phosphate 100 mM): 326 kJ/mol and 410 kJ/mol; unfolding enthalpy (van 't Hoff) (pH 6, sodium phosphate 100 mM): 423 kJ/mol and 531 kJ/mol
Cytochrome c isoform 1 T75E|C108T, P00044 T75E C108T	335 kJ/mol	1.5 kcal/mol/K	372 kJ/mol and 523 kJ/mol	410 kJ/mol and 575 kJ/mol	377 kJ/mol and 381 kJ/mol	1.5 kcal/mol/K	565 kJ/mol	623 kJ/mol	1.5 kcal/mol/K	410 kJ/mol	452 kJ/mol	Tm [5]: 62.6 °C; Tm [4]: 86.3 °C
Cytochrome c isoform 1 C108T, P00044	272 kJ/mol and 285 kJ/mol	1.7 kcal/mol/K	289 kJ/mol and 485 kJ/mol	346 kJ/mol and 631 kJ/mol	339 kJ/mol and 314 kJ/mol	–	–	–	1.7 kcal/mol/K	360 kJ/mol and 510 kJ/mol	397 kJ/mol and 611 kJ/mol	–
Cytochrome c isoform 1 T75E|T102A|C108T, P00044 T75E T102A C108T	314 kJ/mol and 322 kJ/mol	1.7 kcal/mol/K	356 kJ/mol and 544 kJ/mol	427 kJ/mol and 707 kJ/mol	347 kJ/mol and 385 kJ/mol	1.7 kcal/mol/K	385 kJ/mol and 598 kJ/mol	502 kJ/mol and 657 kJ/mol	–	–	–	–
